The values below come from doi:10.1101/368720.

Assay [1] concerns the target rabbit skeletal muscle filamentous actin (rabbit) (UniProt P68135). The experiment in a line: co-sedimentation.
In assay [2] the target is rabbit skeletal muscle G-actin (rabbit) (UniProt P68135). The experiment in a line: ITC. In general terms: In ITC the heat of successive injections is recorded.

With “occidiofungin (native, unmodified) (peptide)”, in assay [1], the Kd – broadly, a measure of binding affinity in units of concentration – is 1000 nM and the stoichiometry N (occidiofungin per actin monomer) was 24. Further, in assay [2], the dissociation constant (Kd) turned out to be 1000 nM and the stoichiometry N (occidiofungin per G-actin) worked out at 1.
Regarding phalloidin (peptide), in assay [1], the dissociation constant (Kd) is 8 nM and the stoichiometry N (phalloidin per actin monomer) came out at 0.6.
